Experimental data published in the supplement of paper PMC9170038.

system: K4 kissing-loop RNA reporter; assay: apparent KD of K4 kissing-loop reporter; higher = weaker reporter binding; settings: Eterna round: R107; input ligand: theophylline 20 uM
Description: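 RNA-MaP round R107: designed RNA switches with theophylline, tryptophan, arginine or FMN aptamers are transcribed on-chip within common flanks. They are titrated with a labelled K4 kissing-loop RNA reporter in RNA-MaP buffer (100 mM Tris pH 7.5, 80 mM KCl, 4 mM MgCl2), without ligand or with the indicated ligand. Median apparent KD per design.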
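Note: bound reporter read as fluorescence of individual clusters on recovered sequencing chips by microscopy, with normalized cluster intensities fitted with a binding model.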

Sequence | apparent KD of K4 kissing-loop reporter
AAAAUAAUCCAGUGAUGUUGGUAUCCAGAUACCAGCCACGAAAGUGGCCCUUGGCAGCUGUGGACGUACAAAAUAAGUACGUCCU [#OpenEnded 8 #StaticStem #K4Early] | 790 nM
UGAUACCAGACGGCCGCCACUCCUGCAGUCAAAGACUGCUAAAGGAAAUUCGUCCAGUGAUGUUGGAGGACCGGGUCUGGUAUCU [TrypBX 13 #SwitchBubble #Palindromic #StaticStem] | 810 nM
GGCGGCCGCGCGAAAGCGCGGCCGGCCGAUACCAGCGCGACGGCGCGCCCUUGGCAGCGGCGCCGAGUGAUGUUCGGCCUGCCGU [#2 Same State - Theophylline A Attempt #13 (HarryS)] | 145 nM
GGAUAGGACAGAGGAUAUGGUAGUGAUGUUACCAAACUGGUUAUUAAUGUCAGAAAACUGGCAAAUCCAGAAGGCUGUCCUAUCG [KL-XFMN-B13] | 60.5 nM
UAAGUCUUAUCGGCCGCCACUCAUUACACGAAGUGAUGUUUCGGGUUUUAGACAAAUAAUUUUUGGAGGACCGGGAUACGAGAAA [theeternabot_sameState_KL_Trp_B_49] | 148 nM
AAACAUUGGUCGGAUACCAGUUAGACCGAUAAGGUCAAAACUGGAGUGAUGUUCCCAAAUAACCCUUGGCAGCCGACCGAUGAAA [MAT - Same State Theophlline B - Mod of Eli - D11] | 205 nM
AGACUACCACACUGUCAAUAGACAGUGAACUAGGAUAUGCUGAUAAGCAGAAGGAGUGAUGUUCCUCGGUAGUCAAUAAAAUAAU [FmnAX 13 C67] | 346 nM
UGUGAUGUGUAGAGUGAUGUUUUGAAGGAUACCAGAGUGUUGUUAUUCCCUUGGCAGCUUGAGUGAUGUUUGAUGUUGUUGUUGU [efvrmullin] | 133 nM

same assay, conditions: Eterna round: R107; input ligand: tryptophan 2.4 mM

Sequence | apparent KD of K4 kissing-loop reporter
GCCGUAGAUGGAAGGAGCGACUUCAGCGGAUAAACGUGACAAUUGGAGUGAUGUUCGCAAGGUCAGGUAGGUCGCCAUCUACGGC | 313 nM
AUUUUGGUUUAGAGUGAUGUUCCUUGUAUUCGAGGACCGGUACGGCCGCCACUCGGGUAGAAAAGAAAAGAAAUGUUUGAUUUUU [BDazzled - #9 SS Tryptophan A] | 290 nM
UACCUAUUAUUAACACUAUAUACAACUGAAGGAGCGACAAUAAAGUCAGGUAGGUCGCAGAAUUAAUGAGUGAUGUUCAUUUUUA [JR_ExcArginiA_Sub014] | 59.7 nM
AAAAUAAAGGAGUGAUGUUCCAUAUGUGAUACCAGCCACGAAAGUGGCCCUUGGCAGCACUGCCAAGUGGACGAAAACGUCCACA [#OpenEnded 5 #StaticStem #K4Early] | 113 nM
UGUACCGAGUCAGGAUAUCAACGACUGACAAAGUCGGUCGAAUAUCCAGUGAUGUUGGAAAAUAAAUGAGAAGGGACUUGGUACU [FmnBS 12 #SwitchBubble #StaticStem] | 344 nM
UCGAUGGUCAGCGAUACCAGCCCAGUGAUGUUGGGCACAUGGUUGCGGAAAAUCCCAUUGGGCCCUUGGCAGCGCUUGCAUGGGU [Titiquesan] | 116 nM
AGAGAGGUGUUUUUUUGAAGUGAGUAAUGGCGAGGACCGGUACGGCCGCCACUCGGGUGAUGUUAGUGAUGUUGAUGUAGUGAUG [yrymullin] | 65.6 nM
GGGAGUUAUUACGGCAGGGUCGAUACGGAUACCAGUAGGCGGCUCUACCCUUGGCAGCCGUAACAUGGUAGUGAUGUUAUCAGUC [theeternabot_exclusion_KL_Theo_A_24] | 405 nM
GGCACUUUUGGUAGACACCAUCUACCUCUAUAGGAUAUGCCGAAAGGCAGAAGGAUAGACCUACAGAGUGAUGUUCUGCGUGCCU | 849 nM
CCUAUCUCAUACGAUACCAGUCAAUGAAAUUUUAUCAAUGCCAUCACCGAGUGAUGUUCGGACCCUUGGCAGCGUAUGGGAUAGG [Ex Theophylline B K4 3] | 223 nM
ACUGAGCAUGCGGCCGCCACUUCAGAACGUCGCCCAGAGGGCGACGCCUCCGCAGUGAUGUUGUGGAGGACCGGGCAUGUUCAGA [Omei KL Tryp B Exc A v5] | 420 nM
UUAUAACCCAGUGAUGUUGGGUAGCGGCCACGAGGACCGGUACGGCCGCCACUCGAGGUUUAACCAGUGAUGUUGGACUAUAUAA [Same state Tryptophan A GF 4] | 23.7 nM
UUGUUUGGUUGAGAGGUUGGGCGAGAUGAUACCAGUAGAGAAGAGUACCCUUGGCAGCAUAGGAGAGAUAUAGUGAUGUUGUAUG [SSTheophA.S] | 299 nM
CCGCUGUACUGCAAUAAGUGAUGUUUAUUGCAGGAUAUCUGGAAACAGAGAAGGGCAUGUACUCGACUUAGCCACUACAGCGGUU | 65.2 nM
GUAGAUAGGCUACAUCUCUAGUCUAUAGACUAGGAUAUCAGGAAACUGAGAAGGAGUCUCAUUGGAGUGAUGUUCCAAGAAUAAU [KL-SSFMN-A15] | 85.1 nM
AAUAAUAAUAAAUAUAGAUUGAUGAGGAAACGAGGACCGGUACGGCCGCCACUCGAGUGAUGUUCGAGAACCUCAUCAAUCAUAA [AK4.7 Exc Tryptophan A] | 382 nM

Sequence | apparent KD of K4 kissing-loop reporter
CUUCUCCUUCCAAUCUCGGCCAACACGGGACGAGGACCGGUACGGCCGCCACUCGUGCAGUGAUGUUGCACGAUGGUGACGGAGA [Queronmaan] | 217 nM
CUGAGCUGCAGCGAUACCAGUGUGGAGUGAUGUUCCCUGGUCCGGGCUGUUGUUCCCUUGCGCCCUUGGCAGCGCAGGAGCAGGG [Exclusion Theophylline B GF 15] | 383 nM
AAGGCCACGAGAAGGAGCGUGCUAUGGAGUGAUGUUCCAAUGUAGACCUAAGGUCUACAAGCACAGGUAGGUCGCUCGUGGUCAA [Omei KL Arginine B SS A v2] | 103 nM
CGACUAGUCUUGCAACCCUAGUCGAUAGACUAGGAUAUCAGGAAACUGAGAAGGAGUCUACUUGCAGUGAUGUUGCAAGAAUAAU [[F]''-[K]'-[F]'-[F1]-[F2]-[K1]-[K2]_Design6] | 156 nM
GCAUGUAUGCGAGAGUGAUGUUCAUGGUUUCGAGGACCGGUACGGCCGCCACUCGCGAUCCGGCGUACAAUCGUGAAGUUAUCAU [theeternabot_sameState_KL_Trp_A_42] | 672 nM
GCGCGUCAUGUCAGCGGUGACACUGUCGAUACCAGCGCCGUAAGGCGCCCUUGGCAGCGACGUGCUGGAGUGAUGUUCCAGCGUC [#2 Exclusion - Theophylline A Attempt #20 (HarryS)] | 141 nM
AAUACCUGAGUGAUGUUCAGGGAAUCAGAAGGAGCGUCAAUUAUGACAGGUAGGUCGCUGAAGACAUGUGUGUAUACACAUGUCC [#04 K4 Arginine A Same State] | 200 nM
AAAAUAAUCCAGUGAUGUUGGUAUCCAGAUACCAGCCACGAAAGUGGCCCUUGGCAGCUGUGGACGUACAAAAUAAGUACGUCCU [#OpenEnded 8 #StaticStem #K4Early] | 651 nM
UGAUACCAGACGGCCGCCACUCCUGCAGUCAAAGACUGCUAAAGGAAAUUCGUCCAGUGAUGUUGGAGGACCGGGUCUGGUAUCU [TrypBX 13 #SwitchBubble #Palindromic #StaticStem] | 480 nM
GGCGGCCGCGCGAAAGCGCGGCCGGCCGAUACCAGCGCGACGGCGCGCCCUUGGCAGCGGCGCCGAGUGAUGUUCGGCCUGCCGU [#2 Same State - Theophylline A Attempt #13 (HarryS)] | 116 nM
GGAUAGGACAGAGGAUAUGGUAGUGAUGUUACCAAACUGGUUAUUAAUGUCAGAAAACUGGCAAAUCCAGAAGGCUGUCCUAUCG [KL-XFMN-B13] | 62.9 nM
UAAGUCUUAUCGGCCGCCACUCAUUACACGAAGUGAUGUUUCGGGUUUUAGACAAAUAAUUUUUGGAGGACCGGGAUACGAGAAA [theeternabot_sameState_KL_Trp_B_49] | 114 nM
AAACAUUGGUCGGAUACCAGUUAGACCGAUAAGGUCAAAACUGGAGUGAUGUUCCCAAAUAACCCUUGGCAGCCGACCGAUGAAA [MAT - Same State Theophlline B - Mod of Eli - D11] | 221 nM
AGACUACCACACUGUCAAUAGACAGUGAACUAGGAUAUGCUGAUAAGCAGAAGGAGUGAUGUUCCUCGGUAGUCAAUAAAAUAAU [FmnAX 13 C67] | 235 nM
UGUGAUGUGUAGAGUGAUGUUUUGAAGGAUACCAGAGUGUUGUUAUUCCCUUGGCAGCUUGAGUGAUGUUUGAUGUUGUUGUUGU [efvrmullin] | 152 nM
